Measured values published in patent US20240197902A1 (published 2024).

B1: Activin A (ligand)
chain: GLECDGKVNICCKKQFFVSFKDIGWNDWIIAPSGYHANYCEGECPSHIAGTSGSSLSFHSTVINHYRMRGHSPFANLKSCCVPTKLRPMSMLYYDDGQNIIKKDIQNMIVEECGCS
B2: Activin B (ligand)
chain: GLECDGRTNLCCRQQFFIDFRLIGWNDWIIAPTGYYGNYCEGSCPAYLAGVPGSASSFHTAVVNQYRMRGLNPGTVNSCCIPTKLSTMSMLYFDDEYNIVKRDVPNMIVEECGCA
B3: BMP10 (ligand)
chain: NAKGNYCKRTPLYIDFKEIGWDSWIIAPPGYEAYECRGVCNYPLAEHLTPTKHAIIQALVHLKNSQKASKACCVPTKLEPISILYLDKGVVTYKFKYEGMAVSECGCR
B4: BMP9 (ligand)
chain: SAGAGSHCQKTSLRVNFEDIGWDSWIIAPKEYEAYECKGGCFFPLADDVTPTKHAIVQTLVHLKFPTKVGKACCVPTKLSPISVLYKDDMGVPTLKYHYEGMSVAECGCR
B5: GDF11 (ligand)
chain: NLGLDCDEHSSESRCCRYPLTVDFEAFGWDWIIAPKRYKANYCSGQCEYMFMQKYPHTHLVQQANPRGSAGPCCTPTKMSPINMLYFNDKQQIIYGKIPGMVVDRCGCS

Target: ActRIIB L38N/L79R
Assay: SPR; 37 C

| Kd | Binder |
| --- | --- |
| 0.339 nM | B1 |
| 0.0369 nM | B2 |

Target: ActRIIB F82T
Assay: SPR; 37 C

| Kd | Binder |
| --- | --- |
| 0.0109 nM | B1 |
| 0.012 nM | B2 |

Target: ActRIIB E50L
Assay: SPR; 37 C

| Kd | Binder |
| --- | --- |
| 0.0456 nM | B1 |
| 0.159 nM | B2 |

Target: ActRIIB-G1Fc
Assay: SPR; 37 C

| Kd | Binder |
| --- | --- |
| 0.0146 nM | B1 |
| 0.0085 nM | B2 |

Target: ActRIIB V99G
Assay: SPR; 37 C

| Kd | Binder |
| --- | --- |
| 0.847 nM | B2 |

Target: ActRIIB L38N/L79R
Assay: SPR; 37 C
Remark: another data set of the same source

| Kd | Binder |
| --- | --- |
| 0.293 nM | B3 |
| 2.13 nM | B4 |
| 0.0886 nM | B5 |

Target: ActRIIB F82T
Assay: SPR; 37 C
Remark: another data set of the same source

| Kd | Binder |
| --- | --- |
| 0.0092 nM | B3 |
| 0.0267 nM | B5 |

Target: ActRIIB E50L
Assay: SPR; 37 C
Remark: another data set of the same source

| Kd | Binder |
| --- | --- |
| 0.163 nM | B3 |
| 0.103 nM | B4 |
| 0.187 nM | B5 |

Target: ActRIIB-G1Fc
Assay: SPR; 37 C
Remark: another data set of the same source

| Kd | Binder |
| --- | --- |
| 0.0409 nM | B3 |
| 0.0911 nM | B4 |
| 0.01 nM | B5 |

Target: ActRIIB V99G
Assay: SPR; 37 C
Remark: another data set of the same source

| Kd | Binder |
| --- | --- |
| 0.951 nM | B3 |
| 0.184 nM | B5 |

Target: L79W
Assay: SPR; 25 C

| Kd | Binder |
| --- | --- |
| 0.16 nM | B3 |
| 0.11 nM | B4 |
| 0.044 nM | B5 |
| 0.26 nM | B1 |

Target: L38Q
Assay: SPR; 25 C

| Kd | Binder |
| --- | --- |
| 0.089 nM | B3 |
| 0.033 nM | B4 |
| 0.021 nM | B5 |
| 0.2 nM | B1 |

Target: N35E
Assay: SPR; 25 C

| Kd | Binder |
| --- | --- |
| 0.28 nM | B3 |
| 0.028 nM | B5 |
| 0.8 nM | B1 |

Target: F82T
Assay: SPR; 25 C

| Kd | Binder |
| --- | --- |
| 0.14 nM | B3 |
| 0.082 nM | B4 |
| 0.018 nM | B5 |

Target: Q98L
Assay: SPR; 25 C

| Kd | Binder |
| --- | --- |
| 0.065 nM | B3 |
| 0.071 nM | B4 |
| 0.043 nM | B5 |
| 0.22 nM | B1 |

Target: Q98I
Assay: SPR; 25 C

| Kd | Binder |
| --- | --- |
| 0.21 nM | B3 |
| 0.059 nM | B4 |
| 0.049 nM | B5 |
| 0.157 nM | B1 |

Target: N35Q
Assay: SPR; 25 C

| Kd | Binder |
| --- | --- |
| 0.27 nM | B3 |
| 0.02 nM | B5 |
| 0.32 nM | B1 |

Target: Q98K
Assay: SPR; 25 C

| Kd | Binder |
| --- | --- |
| 0.068 nM | B3 |
| 0.069 nM | B4 |
| 0.037 nM | B5 |
| 0.145 nM | B1 |

Target: Q98R
Assay: SPR; 25 C

| Kd | Binder |
| --- | --- |
| 0.32 nM | B3 |
| 0.074 nM | B4 |
| 0.02 nM | B5 |
| 0.3 nM | B1 |

Target: N35F
Assay: SPR; 25 C

| Kd | Binder |
| --- | --- |
| 0.22 nM | B3 |
| 0.017 nM | B5 |
| 0.29 nM | B1 |

Target: L38R
Assay: SPR; 25 C

| Kd | Binder |
| --- | --- |
| 0.11 nM | B3 |
| 0.05 nM | B4 |
| 0.007 nM | B5 |
| 0.23 nM | B1 |

Target: Q98V
Assay: SPR; 25 C

| Kd | Binder |
| --- | --- |
| 0.048 nM | B3 |
| 0.047 nM | B4 |
| 0.033 nM | B5 |
| 0.16 nM | B1 |

Target: ActRIIB-G1Fc
Assay: SPR; 25 C

| Kd | Binder |
| --- | --- |
| 0.169 nM | B3 |
| 0.059 nM | B4 |
| 0.011 nM | B5 |
| 0.25 nM | B1 |

Target: Q98A
Assay: SPR; 25 C

| Kd | Binder |
| --- | --- |
| 0.21 nM | B3 |
| 0.043 nM | B4 |
| 0.037 nM | B5 |
| 0.155 nM | B1 |

Target: L38D
Assay: SPR; 25 C

| Kd | Binder |
| --- | --- |
| 0.15 nM | B3 |
| 0.063 nM | B4 |
| 0.03 nM | B5 |
| 0.23 nM | B1 |

Target: K55A
Assay: SPR; 37 C

| Kd | Binder |
| --- | --- |
| 0.023 nM | B3 |
| 0.142 nM | B4 |
| 0.026 nM | B5 |
| 0.046 nM | B1 |

Target: L79K
Assay: SPR; 37 C

| Kd | Binder |
| --- | --- |
| 1.4 nM | B3 |
| 1.1 nM | B4 |
| 0.14 nM | B5 |
| 0.13 nM | B1 |

Target: K55A/F82I
Assay: SPR; 37 C

| Kd | Binder |
| --- | --- |
| 0.007 nM | B3 |
| 0.134 nM | B4 |
| 0.09 nM | B5 |
| 0.047 nM | B1 |

Target: F82K
Assay: SPR; 37 C

| Kd | Binder |
| --- | --- |
| 0.008 nM | B3 |
| 0.057 nM | B5 |
| 0.093 nM | B1 |

Target: F82I
Assay: SPR; 37 C

| Kd | Binder |
| --- | --- |
| 0.008 nM | B3 |
| 0.275 nM | B4 |
| 0.01 nM | B5 |
| 0.078 nM | B1 |

Target: K74A
Assay: SPR; 37 C

| Kd | Binder |
| --- | --- |
| 0.033 nM | B3 |
| 0.36 nM | B4 |
| 0.43 nM | B5 |
| 0.034 nM | B1 |

Target: L79K/F82K
Assay: SPR; 37 C

| Kd | Binder |
| --- | --- |
| 0.068 nM | B3 |
| 1.6 nM | B5 |
| 0.64 nM | B1 |

Target: K55E
Assay: SPR; 37 C

| Kd | Binder |
| --- | --- |
| 0.014 nM | B3 |
| 0.27 nM | B4 |
| 0.052 nM | B5 |
| 0.064 nM | B1 |

Target: ActRIIB-G1Fc
Assay: SPR; 37 C
Remark: another data set of the same source

| Kd | Binder |
| --- | --- |
| 0.037 nM | B4 |
| 0.012 nM | B5 |
| 0.047 nM | B1 |

Target: ActRIIB F82T
Assay: SPR; 37 C; transient

| Kd | Binder |
| --- | --- |
| 6.17 nM | B4 |
